Our source for the binding result and Kd values is US6495314 (Scripps Research, dated 2002).

Usually Kd stands for the free concentration of one partner at which half of the binding sites on the other are occupied at equilibrium, for simple one-to-one binding. A higher Kd goes with a looser complex.

B6: control peptide Ac-CAcpYGGFL.amide (YGGFL = leucine enkephalin) (peptide)
peptide: Ac-CYGGFL-NH2
modifications: not fully specified (residue 1); also: Cys side chain coupled to Sulfolink agarose
notes: also called Ac-CBYGGFL.amide; Leucine-Enkephalin agarose column

No end group written: not given here.

Test [1] addresses T1, Ac-CWAcp-PPPALPPKKR.amide, C3G-derived peptide designed for attachment to an affinity column (N-terminal acetyl; ε-aminocaproic acid (Acp, B) at position 3; C-terminal amide; on the column the Cys side chain is coupled to iodoacetyl agarose (Sulfolink)).
T1 construct: also called Acetyl-CWAcp-C3G; Ac-CWBPPPALPPKKR.amide
T1 peptide: CWPPPALPPKKR
The experiment in a line: 19-member array on C3G peptide affinity column, MALDI MS readout.

Test [2] deals with B6. The experiment in a line: nine-member array on control peptide column, A280. The procedure: The column was then washed with 0.5 M NaCl buffer to remove nonspecific binding proteins from the column. Specifically bound protein analogues were then eluted with 1 M hydroxylamine bufffer. Amounts of eluted peptide were monitored by UV absorbance at 280 nm. This procedure was used for both the C3G peptide column and for the control column loaded with Ac-C-AcpYGGFL.amide.
Affinity chromatography of the arrays of protein analogues was carried out as follows. […] After incubation at room temperature for a period of 6–8 hours the column was washed with 0.5 M NaCl in 0.1 M sodium phosphate, pH 7.0 buffer (6×1 mL) to remove any non-specifically bound proteins. The first two 1 mL fractions were collected and immediately mixed with an equal volume of 1 M NH_2OH, 20 mM NH_4HCO_3, pH 5.5 buffer to cleave any thioester-containing protein analogues. […] Samples of the eluted fractions were monitored by UV absorbance at 280 nm. This procedure was used for both the C3G peptide column and for the control column loaded with Ac-C-Acp-YGGFL.amide. To accommodate MALDI analysis, both the 0.5M NaCl wash and 1 M NH_2OH fractions were desalted on a low pressure, disposable C-18 column, washed with HPLC buffer A and peptide fragments eluted with 1.5 mL 60% acetonitrile in water, 0.1% TFA.

For test [3], the target named is T2, synthetic murine cCrk N-terminal SH3 domain (residues 134-191) (murine, UniProt Q64010 134-191).
T2 construct: Made by total chemical synthesis and folded in HEPES/NaCl buffer; also called cCrk(134-191); c-Crk SH3
In words: in solution; method not stated in the legend. The procedure: (§1) The resulting synthetic protein domain was then assayed for its affinity for two different proline-rich peptides. […] This change in solvent exposure leads to an increase in the fluorescence intensity of the tryptophan sidechain which can be monitored as a function of increasing ligand concentration (Feng et al. *Science* 1994.266, 1241–1245).
(§2) 1994, 3, 1261–1266. The purified and lyophilized 58 residue polypeptide chain (0.2 mg) was folded by dissolving in 0.6 mL of 20 mM Hepes, 60 mM NaCl, pH 7.3 to produce a folded protein solution (~50 μM).
Target sequence in this assay (Q64010 134-191 limits assumed): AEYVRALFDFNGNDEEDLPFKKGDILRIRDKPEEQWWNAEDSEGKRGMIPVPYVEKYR

Test [4] has as its target T2, synthetic murine cCrk N-terminal SH3 …. The experiment in a line: tryptophan fluorescence titration in solution, 12 hours incubation. On the procedure:
as §1, §2

Test [5] has as its target T1, Ac-CWAcp-PPPALPPKKR.amide, C3G-derived …. The experiment in a line: Gly-[COS]-Gly array on C3G peptide affinity column, MALDI MS readout (FIG. 27A).
For test [6], the target named is T2, synthetic murine cCrk N-terminal SH3 …. The experiment in a line: control peptide affinity column.

B1: c-Crk N-terminal SH3 domain (134-191) analogue, N^146D^147 replaced by Gly-[COS]-βAla (other)
chain: AEYVRALFDFNGGXEEDLPFKKGDILRIRDKPEEQWWNAEDSEGKRGMIPVPYVEKYR
modifications: not fully specified; Gly-[COS]-βAla unit (-NH-CH2-CO-S-CH2-CH2-CO-) in place of N146-D147; backbone thioester
notes: Positions count on murine c-Crk; X = -S-CH2CH2-CO- unit; Tested crude in a pooled array; also called ND
Consider B1, for which the binding result in test [1] is given as “binds”.

B2: c-Crk N-terminal SH3 domain (134-191) analogue, dipeptide DI (157-158) replaced by Gly-[COS]-βAla (other)
chain: AEYVRALFDFNGNDEEDLPFKKGGXLRIRDKPEEQWWNAEDSEGKRGMIPVPYVEKYR
modifications: not fully specified; Gly-[COS]-βAla unit (-NH-CH2-CO-S-CH2-CH2-CO-) in place of D157-I158; backbone thioester
notes: Positions count on murine c-Crk; X = -S-CH2CH2-CO- unit; also called Gly-SβAla analogue
On to B2, for which the binding result in test [2] and in test [1] was “no binding” each time.

B3: c-Crk N-terminal SH3 domain (134-191) analogue, K^164P^165 replaced by Gly-[COS]-βAla (other)
chain: AEYVRALFDFNGNDEEDLPFKKGDILRIRDGXEEQWWNAEDSEGKRGMIPVPYVEKYR
modifications: not fully specified; Gly-[COS]-βAla unit (-NH-CH2-CO-S-CH2-CH2-CO-) in place of K164-P165; backbone thioester
notes: Positions count on murine c-Crk; X = -S-CH2CH2-CO- unit; also called KP; Gly-SβAla analogue
Turning to B3, the binding result in test [2] is given as “no binding”; in test [1], “binds”.

B4: c-Crk N-terminal SH3 domain (134-191) analogue, dipeptide FK (153-154) replaced by Gly-[COS]-βAla (other)
chain: AEYVRALFDFNGNDEEDLPGXKGDILRIRDKPEEQWWNAEDSEGKRGMIPVPYVEKYR
modifications: not fully specified; Gly-[COS]-βAla unit (-NH-CH2-CO-S-CH2-CH2-CO-) in place of F153-K154; backbone thioester
notes: It is one of the 19 dipeptide positions within c-Crk(146-165); Positions count on murine c-Crk; X = -S-CH2CH2-CO- unit; Tested crude in a pooled array
Regarding B4, in test [1], the binding result was “no binding”.
As for PPPALPPKKR-NH2 (also called C3G peptide) [C3G-derived peptide PPPALPPKKR.amide], the results for the Kd in test [3] and in test [4] were 2300 nM and 1800 nM, respectively.

B5: c-Crk N-terminal SH3 domain (134-191) analogue, dipeptide KP (164-165) replaced by Gly-[COS]-Gly (other)
chain: AEYVRALFDFNGNDEEDLPFKKGDILRIRDGGEEQWWNAEDSEGKRGMIPVPYVEKYR
modifications: not fully specified; Gly-[COS]-Gly unit (-NHCH2CO-SCH2CO-) in place of K164-P165; backbone thioester (S in place of the NH of residue 165)
notes: Member of the nine-member Gly-[COS]-Gly array over cCrk(156-165); Positions count on murine c-Crk; also called KP (Gly-[COS]-Gly array)
With B5, the binding result in test [5] is “binds”.
Consider B6, for which the binding result in test [6] is on record as “no binding”.

B7: c-Crk N-terminal SH3 domain (134-191) analogue, dipeptide GD (156-157) replaced by Gly-[COS]-Gly (other)
chain: AEYVRALFDFNGNDEEDLPFKKGGILRIRDKPEEQWWNAEDSEGKRGMIPVPYVEKYR
modifications: not fully specified; Gly-[COS]-Gly unit (-NHCH2CO-SCH2CO-) in place of G156-D157; backbone thioester (S in place of the NH of residue 157)
notes: Member of the nine-member Gly-[COS]-Gly array over cCrk(156-165); G156 stays Gly; Positions count on murine c-Crk; also called GD (Gly-[COS]-Gly array)
Regarding B7, the binding result in test [5] is “binds”.

B8: c-Crk N-terminal SH3 domain (134-191) analogue, dipeptide DI (157-158) replaced by Gly-[COS]-Gly (other)
chain: AEYVRALFDFNGNDEEDLPFKKGGGLRIRDKPEEQWWNAEDSEGKRGMIPVPYVEKYR
modifications: not fully specified; Gly-[COS]-Gly unit (-NHCH2CO-SCH2CO-) in place of D157-I158; backbone thioester (S in place of the NH of residue 158)
notes: Member of the nine-member Gly-[COS]-Gly array over cCrk(156-165); Positions count on murine c-Crk; also called DI (Gly-[COS]-Gly array)
Take B8: the binding result in test [5] is reported as “binds”.

B9: c-Crk N-terminal SH3 domain (134-191) analogue, dipeptide IR (161-162) replaced by Gly-[COS]-Gly (other)
chain: AEYVRALFDFNGNDEEDLPFKKGDILRGGDKPEEQWWNAEDSEGKRGMIPVPYVEKYR
modifications: not fully specified; Gly-[COS]-Gly unit (-NHCH2CO-SCH2CO-) in place of I161-R162; backbone thioester (S in place of the NH of residue 162)
notes: Member of the nine-member Gly-[COS]-Gly array over cCrk(156-165); Positions count on murine c-Crk; also called IR (Gly-[COS]-Gly array)
On to B9, for which the binding result in test [5] was “binds”.

B10: c-Crk N-terminal SH3 domain (134-191) analogue, dipeptide RD (162-163) replaced by Gly-[COS]-Gly (other)
chain: AEYVRALFDFNGNDEEDLPFKKGDILRIGGKPEEQWWNAEDSEGKRGMIPVPYVEKYR
modifications: not fully specified; Gly-[COS]-Gly unit (-NHCH2CO-SCH2CO-) in place of R162-D163; backbone thioester (S in place of the NH of residue 163)
notes: Member of the nine-member Gly-[COS]-Gly array over cCrk(156-165); Positions count on murine c-Crk; also called RD (Gly-[COS]-Gly array)
For B10, in test [5], the binding result is on record as “binds”.

B11: c-Crk N-terminal SH3 domain (134-191) analogue, dipeptide DK (163-164) replaced by Gly-[COS]-Gly (other)
chain: AEYVRALFDFNGNDEEDLPFKKGDILRIRGGPEEQWWNAEDSEGKRGMIPVPYVEKYR
modifications: not fully specified; Gly-[COS]-Gly unit (-NHCH2CO-SCH2CO-) in place of D163-K164; backbone thioester (S in place of the NH of residue 164)
notes: Member of the nine-member Gly-[COS]-Gly array over cCrk(156-165); Positions count on murine c-Crk; also called DK (Gly-[COS]-Gly array)
Turning to B11, the binding result in test [5] was “binds”.

B12: c-Crk N-terminal SH3 domain (134-191) analogue, dipeptide IL (158-159) replaced by Gly-[COS]-Gly (other)
chain: AEYVRALFDFNGNDEEDLPFKKGDGGRIRDKPEEQWWNAEDSEGKRGMIPVPYVEKYR
modifications: not fully specified; Gly-[COS]-Gly unit (-NHCH2CO-SCH2CO-) in place of I158-L159; backbone thioester (S in place of the NH of residue 159)
notes: Member of the nine-member Gly-[COS]-Gly array over cCrk(156-165); Positions count on murine c-Crk; also called IL (Gly-[COS]-Gly array)
Consider B12, for which the binding result in test [5] was “binds”.

B13: c-Crk N-terminal SH3 domain (134-191) analogue, dipeptide LR (159-160) replaced by Gly-[COS]-Gly (other)
chain: AEYVRALFDFNGNDEEDLPFKKGDIGGIRDKPEEQWWNAEDSEGKRGMIPVPYVEKYR
modifications: not fully specified; Gly-[COS]-Gly unit (-NHCH2CO-SCH2CO-) in place of L159-R160; backbone thioester (S in place of the NH of residue 160)
notes: Member of the nine-member Gly-[COS]-Gly array over cCrk(156-165); Positions count on murine c-Crk; also called LR (Gly-[COS]-Gly array)
B13: the binding result in test [5] is listed as “binds”.

B14: c-Crk N-terminal SH3 domain (134-191) analogue, dipeptide RI (160-161) replaced by Gly-[COS]-Gly (other)
chain: AEYVRALFDFNGNDEEDLPFKKGDILGGRDKPEEQWWNAEDSEGKRGMIPVPYVEKYR
modifications: not fully specified; Gly-[COS]-Gly unit (-NHCH2CO-SCH2CO-) in place of R160-I161; backbone thioester (S in place of the NH of residue 161)
notes: Member of the nine-member Gly-[COS]-Gly array over cCrk(156-165); Positions count on murine c-Crk; also called RI (Gly-[COS]-Gly array)
B14: in test [5], the binding result is given as “binds”.
